In article PMC9335266:

target: TRIM7^B30.2 (PRY-SPRY domain of human TRIM7, residues 338-511) (human) (UniProt Q9C029); assay: ITC

Substance	fold decrease in binding affinity against the 2C peptide
2C peptide with F−2 substituted by Ala	8 fold
2C peptide with F−2 substituted by an acidic residue (D−2)	8 to 15 fold
2C peptide with F−2 replaced by polar serine (S−2)	> 50 fold
2C peptide with F−2 replaced by a positively charged residue (R−2)	> 50 fold
